Drawing on paper PMC10766600, “Antigen self-anchoring onto bacteriophage T5 capsid-like particles for vaccine design” (NPJ Vaccines, 2024), this text covers Kd for one molecule.

In this test the target is T1, decoration protein pb10 of bacteriophage T5, full length (bacteriophage T5, UniProt Q6QGD6 1-164).
T1 construct: Cloned in pET28b; also called native pb10; unmodified pb10; source: E. coli BL21 (DE3), purified (HisTrap FF, HiTrap SP, Superdex 75)
T1 sequence (looked up): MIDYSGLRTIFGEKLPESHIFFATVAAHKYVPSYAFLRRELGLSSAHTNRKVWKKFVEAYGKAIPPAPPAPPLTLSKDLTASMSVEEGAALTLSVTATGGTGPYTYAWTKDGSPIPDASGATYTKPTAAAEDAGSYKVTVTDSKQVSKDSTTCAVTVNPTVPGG
As to the kind of experiment: SPR; T5 CLPs captured on a CM5 chip through covalently coupled rabbit polyclonal anti-capsid antibodies (about 900 RU); pb10 or chimeras injected at 0.25-4 nM for 200 s at 50 µL/min; 25 °C; PBS with 0.05% Tween 20 and 1 mg/mL BSA; simple Langmuir model. The settings on record: both partners purified. (In SPR one partner is held on a chip, and binding of the other changes the refractive index at the surface.)

B1: bacteriophage T5 capsid-like particles (T5 CLPs) (complex)
chain: AVNQSSSVEVSSESYETIFSQRIIRDLQKELVVGALFEELPMSSKILTMLVEPDAGKATWVAASTYGTDTTTGEEVKGALKEIHFSTYKLAAKSFITDETEEDAIFSLLPLLRKRLIEAHAVSIEEAFMTGDGSGKPKGLLTLASEDSAKVVTEAKADGSVLVTAKTISKLRRKLGRHGLKLSKLVLIVSMDAYYDLLEDEEWQDVAQVGNDSVKLQGQVGRIYGLPVVVSEYFPAKANSAEFAVIVYKDNFVMPRQRAVTVERERQAGKQRDAYYVTQRVNLQRYFANGVVSGTYAAS
modifications: DNA-free expanded capsid lacking pb10 (T5 dec deletion, stAmN5). Mature pb8 after removal of the scaffolding domain; limits from the UniProt chain feature, matching the 299 aa entity of PDB 6OMC/6OMA.
For orientation: Kd means the constant that tells how readily two partners part at equilibrium. A lower Kd goes with higher affinity. With B1, the Kd lay in the range of 1.5 to 2.3 pM.
